The results in this text go back to PMC6299498 (BMC Veterinary Research, 2018).

This assay deals with T1, SLA-2*HB01 heavy chain (swine leukocyte antigen 2, haplotype HB01 allele), extracellular domain (Sus scrofa).
T1 construct: SLA-2 haplotype HB01 allele, swine MHC class I heavy chain, extracellular domain stated as 275 amino acids; also called heavy chain of SLA-2*HB01
T1 MHC heavy: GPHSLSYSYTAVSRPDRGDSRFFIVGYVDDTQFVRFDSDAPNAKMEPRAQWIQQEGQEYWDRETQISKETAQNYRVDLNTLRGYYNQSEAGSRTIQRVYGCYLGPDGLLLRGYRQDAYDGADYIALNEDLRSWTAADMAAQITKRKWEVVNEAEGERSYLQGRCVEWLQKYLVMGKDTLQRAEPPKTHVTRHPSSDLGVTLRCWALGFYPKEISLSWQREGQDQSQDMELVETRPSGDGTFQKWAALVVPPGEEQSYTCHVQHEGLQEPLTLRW
Kind of assay: SEC. Conditions: both partners purified.

In the case of ALLRSATYY, the binding result is reported as “binds”.
